15 molecules from patent US20240209062A1 (INVETX, published 2024) can be followed below.

Positions count from the first letter of the chain named. Names may count otherwise.

B1: IgG with feline IgG1a Fc variant S428L, T286D (antibody)
heavy: DVQLVESGGDLVKPGGSLRLTCVASGLSLTSDSMSWVRQAPGKGLQWVSTLWSNRGTYYTDSVKGRFTISKDNAENTLYLQMNNLKTEDTATYYCASIYYYEADYLHWYFDFWGQGALVTVSSASTTAPSVFPLAPSCGTTSGATVALACLVLGYFPEPVTVSWNSGALTSGVHTFPAVLQASGLYSLSSMVTVPSSRWLSDTFTCNVAHPPSNTKVDKTVRKTDHPPGPKPCDCPKCPPPEAAGGPSIFIFPPKPKDTLSISRTPEVTCLVVDLGPDDSDVQITWFVDNTQVYDAKTSPREEQFNSTYRVVSVLPILHQDWLKGKEFKCKVNSKSLPSPIERTISKAKGQPHEPQVYVLPPAQEELSRNKVSVTCLIKSFHPPDIAVEWEITGQPEPENNYRTTPPQLDSDGTYFVYSKLSVDRSHWQRGNTYTCSVLHEALHSHHTQKSLTQSPG
light: EIQMTQSPTSLSASVGDRVTITCRASEGIANNLSWYQQTPGKAPKLLIYATSNLHSGVPSRFSGSGSGTDFTLTISSLQPEDFATYYCQQGFKWPLTFGGGTKLEITRSDAQPSVFLFQPSLDELHTGSASIVCILNDFYPKEVNVKWKVDGVVQNKGIQESTTEQNSKDSTYSLSSTLTMSSTEYQSHEKFSCEVTHKSLASTLVKSFNRSECQRE
notes: IgG1a constant domain with MALA mutations (M234A, L244A as printed); variable domains from WO 2023/97275
B2: IgG with feline IgG1a Fc variant S428M, R392E (antibody)
heavy: B1 heavy with D295T, R403E, L439M
light: B1 light
notes: as for B1
B3: IgG with feline IgG1a Fc variant S428M, R301Y (antibody)
heavy: B1 heavy with D295T, R310Y, L439M
light: B1 light
notes: as for B1
B4: IgG with feline IgG1a Fc variant S428M, R301L (antibody)
heavy: B1 heavy with D295T, R310L, L439M
light: B1 light
notes: as for B1
B5: IgG with feline IgG1a Fc variant S428M, I377Y (antibody)
heavy: B1 heavy with D295T, I386Y, L439M
light: B1 light
notes: Printed '1377Y' read as I377Y; IgG1a constant domain with MALA mutations (M234A, L244A as printed); variable domains from WO 2023/97275; also called S428M, 1377Y
B6: IgG with feline IgG1a Fc variant S428M, R392D (antibody)
heavy: B1 heavy with D295T, R403D, L439M
light: B1 light
notes: as for B1
B7: IgG with feline IgG1a Fc variant S428M (antibody)
heavy: B1 heavy with D295T, L439M
light: B1 light
notes: as for B1
B8: IgG with feline IgG1a Fc variant S428M, L309D (antibody)
heavy: B1 heavy with D295T, L318D, L439M
light: B1 light
notes: as for B1
B9: IgG with feline IgG1a Fc variant S428M, T286E (antibody)
heavy: B1 heavy with D295E, L439M
light: B1 light
notes: as for B1
B10: IgG with feline IgG1a Fc variant S428M, I377L (antibody)
heavy: B1 heavy with D295T, I386L, L439M
light: B1 light
notes: Printed '1377L' read as I377L; IgG1a constant domain with MALA mutations (M234A, L244A as printed); variable domains from WO 2023/97275; also called S428M, 1377L
B11: IgG with feline IgG1a Fc variant S428M, Q311V (antibody)
heavy: B1 heavy with D295T, Q320V, L439M
light: B1 light
notes: as for B1
B12: IgG with feline IgG1a Fc variant S428M, T286D (antibody)
heavy: B1 heavy with L439M
light: B1 light
notes: as for B1
B13: IgG with feline IgG1a Fc variant S428M, L309E (antibody)
heavy: B1 heavy with D295T, L318E, L439M
light: B1 light
notes: as for B1
B14: IgG with feline IgG1a Fc variant S428M, R301V (antibody)
heavy: B1 heavy with D295T, R310V, L439M
light: B1 light
notes: as for B1
B15: IgG with feline IgG1a Fc variant S428M, L309V (antibody)
heavy: B1 heavy with D295T, L318V, L439M
light: B1 light
notes: as for B1

This assay deals with T1, feline FcRn (soluble portion of large subunit p51 isoform X1 with C-terminal 6xHis-tag, co-expressed with … (feline, UniProt Q5MGS7 21-118)).
T1 construct: Heterodimer made by co-expression in CHO cells, purified on HisTrap FF; also called FcRn complex
T1 sequence (chain, as listed by the source limits assumed, chain 1 of 2): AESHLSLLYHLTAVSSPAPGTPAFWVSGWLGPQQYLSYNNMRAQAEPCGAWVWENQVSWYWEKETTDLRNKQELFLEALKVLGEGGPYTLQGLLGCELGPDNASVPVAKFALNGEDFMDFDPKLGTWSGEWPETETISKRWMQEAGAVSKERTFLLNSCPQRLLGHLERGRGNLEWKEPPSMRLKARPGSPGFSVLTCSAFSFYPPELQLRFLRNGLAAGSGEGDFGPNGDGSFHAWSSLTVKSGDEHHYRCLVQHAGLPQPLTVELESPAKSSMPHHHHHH
T1 sequence (Q5MGS7 other isoform, or with tags, fused parts or gaps limits assumed, chain 2 of 2): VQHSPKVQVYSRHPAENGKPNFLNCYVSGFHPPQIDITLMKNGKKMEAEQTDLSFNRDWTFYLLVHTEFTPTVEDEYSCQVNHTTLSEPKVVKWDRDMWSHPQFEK
Kind of assay: SPR, Biacore T200, IgG captured on Protein L chip, feline FcRn flowed over, pH 5.9, 1:1 fit. In short, it runs like this: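 Biacore T200; antibody variants captured via kappa chain on Protein L chip (10 μL/min, 60 s), feline FcRn injected at 30 μL/min, 120 s contact, 600 s dissociation, in PBS-P+ running buffer at pH 5.9. Glycine pH 1.7 regeneration; kinetics fitted to 1:1 model.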
(SPR reads the build-up and loss of mass on a sensor chip optically.)
For B1, binding was put at a Kd of 33.4 nM, the koff turned out to be 0.0333 s⁻¹ and the kon is 1e+06 M⁻¹ s⁻¹.
As to B2, the Kd was determined as 97.8 nM, the dissociation rate constant (koff) is 0.0766 s⁻¹ and the kon worked out at 784000 M⁻¹ s⁻¹.
Molecule B3 returned a Kd of 98.7 nM, a koff of 0.082 s⁻¹ and an on-rate constant (kon) of 830000 M⁻¹ s⁻¹.
Turning to B4, binding was characterised by a dissociation constant (Kd) of 103 nM, the koff was 0.0835 s⁻¹ and the kon worked out at 809000 M⁻¹ s⁻¹.
The molecule B5 yielded a Kd of 70.8 nM, a koff of 0.0636 s⁻¹ and a kon of 900000 M⁻¹ s⁻¹.
In turn, B6 displayed a Kd of 101 nM, a koff of 0.0795 s⁻¹ and a kon of 789000 M⁻¹ s⁻¹.
The matching figures for B7: 70.1 nM, 0.0702 s⁻¹ and 1.01e+06 M⁻¹ s⁻¹.
Turning to B8, the Kd is 177 nM, the koff came out at 0.104 s⁻¹ and the kon stood at 592000 M⁻¹ s⁻¹.
Take B9: the equilibrium dissociation constant (Kd) worked out at 27.4 nM, the koff worked out at 0.0292 s⁻¹ and the on-rate (kon) is 1.07e+06 M⁻¹ s⁻¹.
On to B10, for which the Kd is 76.2 nM, the off-rate constant (koff) was found to be 0.0751 s⁻¹ and the kon worked out at 981000 M⁻¹ s⁻¹.
Regarding B11, the Kd amounted to 28.4 nM, the koff turned out to be 0.0319 s⁻¹ and the kon is 1.12e+06 M⁻¹ s⁻¹.
Consider B12, for which the Kd is 34.9 nM, the koff came to 0.0372 s⁻¹ and the on-rate constant (kon) turned out to be 1.07e+06 M⁻¹ s⁻¹.
The matching figures for B13: 45.6 nM, 0.0413 s⁻¹ and 905000 M⁻¹ s⁻¹.
The matching figures for B14: 98.5 nM, 0.0801 s⁻¹ and 812000 M⁻¹ s⁻¹.
The matching figures for B15: 31.3 nM, 0.0358 s⁻¹ and 1.15e+06 M⁻¹ s⁻¹.

The Kd is the free concentration of one partner at which half of the binding sites on the other are occupied at equilibrium, for simple one-to-one binding. In general, koff refers to the first-order rate constant of dissociation. What is called kon is a measure of how fast the partners come together.
